Reference: patent publication US20050074865A1 (COMPOUND THERAPEUTICS, published 2005)
Where no end group is shown, it is not given here.

Columns and labels:
[1] = target: T1, biotinylated target peptide NH2-YPYDVPDYAGSGDYKAFD containing the high affinity HA epitope (also: biotinylated, position not given here); experiment: sandwich ELISA: component captured on anti-myc (mAb 9E10) plates, biotinylated peptide detected with streptavidin-HRP
T1 construct: also called the peptide
T1 peptide: YPYDVPDYAGSGDYKAFD

[2] = target: T2, S-TNF, human TNFα fusion protein with an N-terminal S-Tag (human, UniProt P01375 77-233); experiment: indirect ELISA: sp55 from conditioned medium captured on Ni-NTA wells, S-TNF at 1 µg/mL, detection with S-protein-HRP, absorbance at 370 nm
T2 construct: Made by the applicants; not shown: 15 amino acid S-Tag peptide (Novagen)
T2 sequence (P01375 77-233): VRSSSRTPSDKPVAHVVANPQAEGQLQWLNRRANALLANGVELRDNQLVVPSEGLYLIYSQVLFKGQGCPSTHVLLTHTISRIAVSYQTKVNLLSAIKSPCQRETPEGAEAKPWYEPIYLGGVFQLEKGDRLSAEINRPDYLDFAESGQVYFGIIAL

B1: scFvαHA, single chain antibody derived from monoclonal antibody mAb26/9 (address domain alone, expressed from pSecTag2A with C-terminal myc and His6 tags) (scFv, not shown: small tags and cut ends)
scFv: MEVQLLESGGDLVKPGGSLKLSCAASGFTFSTYGMSWVRQTPDKRLEWVATISNGGGYTYYPDSVKGRFTISRDNAKNTLYLQMSSLKSEDTAMYYCARRERYDENGFAYWGRGTLVTVSAGGGGSGGGGSGGGGSDIVMSQSPSSLAVSVGEKITMSCKSSQSLFNSGKQKNYLTWYQQKPGQSPKLLIYWASTRESGVPDRFTGSGSGTDFTLTISSVKAEDLAVYYCQNDYSHPLTFGGGTKLEIKRADAAPT
notes: also called scHA; scFv anti-HA
Question: Does B1 bind [1]?
Answer: binds

B2: sp55, full-length ecto-domain of human TNFR-1 (residues 30-211) with C-terminal myc and His6 tags, expressed from pSecTag2A (receptor)
chain: DAAQPARRAVRSLVPHLGDREKRDSVCPQGKYIHPQNNSICCTKCHKGTYLYNDCPGPGQDTDCRECESGSFTASENHLRHCLSCSKCRKEMGQVEISSCTVDRDTVCGCRKNQYRHYWSENLFQCFNCSLCLNGTVHLSCQEKQNTVCTCHAGFFLRENECVSCSNCKKSLECTKLCLPQIENVKGTEDSGTTRGGPEQKLISEEDLNSAVDHHHHHH
notes: also called sp55 address domain; p55FL
Question: B2 was tested. Which “fold elevation of S-TNF binding over non-specific binding in control samples” value [2] did it give?
Answer: 3 fold
